From paper PMC8134030 (Biochemistry and Biophysics Reports, 2021) come the findings set out here.

Holding throughout (test): pull-down
One experiment deals with T1, MBP:Ncd^CTm (Drosophila, UniProt P20480 333-700).
T1 sequence (looked up): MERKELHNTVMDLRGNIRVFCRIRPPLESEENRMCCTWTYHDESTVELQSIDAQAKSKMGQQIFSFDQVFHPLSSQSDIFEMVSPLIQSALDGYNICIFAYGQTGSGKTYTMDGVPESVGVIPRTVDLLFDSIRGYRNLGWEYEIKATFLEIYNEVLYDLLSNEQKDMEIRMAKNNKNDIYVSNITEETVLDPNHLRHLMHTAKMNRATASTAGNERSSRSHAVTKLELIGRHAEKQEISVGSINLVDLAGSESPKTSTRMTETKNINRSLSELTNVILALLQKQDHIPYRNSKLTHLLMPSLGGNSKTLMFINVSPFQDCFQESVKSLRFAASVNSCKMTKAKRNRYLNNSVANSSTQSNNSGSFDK

For a further experiment, the target named is T2, MBP:Ncd^CTm3A (Drosophila, UniProt P20480 333-700, H619A | R623A | H629A).
T2 sequence (looked up): T1 sequence (looked up) with H287A, R291A, H297A

The target in a further experiment is T3, MBP:Ncd^FL (Drosophila, UniProt P20480 1-700).
T3 sequence (looked up): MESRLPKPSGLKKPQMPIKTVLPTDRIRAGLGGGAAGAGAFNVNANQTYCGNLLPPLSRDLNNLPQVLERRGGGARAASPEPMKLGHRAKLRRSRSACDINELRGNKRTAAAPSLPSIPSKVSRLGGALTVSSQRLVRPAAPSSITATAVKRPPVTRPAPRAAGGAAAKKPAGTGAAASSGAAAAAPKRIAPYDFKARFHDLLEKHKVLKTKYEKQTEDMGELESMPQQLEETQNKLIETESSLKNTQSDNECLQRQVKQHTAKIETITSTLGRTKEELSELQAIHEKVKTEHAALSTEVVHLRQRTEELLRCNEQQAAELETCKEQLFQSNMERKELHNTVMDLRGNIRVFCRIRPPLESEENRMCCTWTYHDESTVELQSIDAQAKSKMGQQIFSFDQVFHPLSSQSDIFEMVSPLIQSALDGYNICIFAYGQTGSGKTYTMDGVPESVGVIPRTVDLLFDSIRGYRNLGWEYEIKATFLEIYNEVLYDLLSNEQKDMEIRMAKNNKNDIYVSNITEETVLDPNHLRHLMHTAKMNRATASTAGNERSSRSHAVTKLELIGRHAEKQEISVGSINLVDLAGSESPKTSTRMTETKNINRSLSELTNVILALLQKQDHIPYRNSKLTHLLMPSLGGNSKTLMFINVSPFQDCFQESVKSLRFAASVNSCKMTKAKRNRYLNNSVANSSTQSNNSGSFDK

Where a chain is given by its changes, count along the chain named.

B1: Ncd^nMBD, soluble untagged prey (domain or fragment, Drosophila, UniProt P20480 1-204, looked up)
chain: MESRLPKPSGLKKPQMPIKTVLPTDRIRAGLGGGAAGAGAFNVNANQTYCGNLLPPLSRDLNNLPQVLERRGGGARAASPEPMKLGHRAKLRRSRSACDINELRGNKRTAAAPSLPSIPSKVSRLGGALTVSSQRLVRPAAPSSITATAVKRPPVTRPAPRAAGGAAAKKPAGTGAAASSGAAAAAPKRIAPYDFKARFHDLLE
Regarding B1, in the experiment with MBP:Ncd^CTm, the equilibrium dissociation constant (Kd) was around 2000 nM. For the same molecule, the “fold reduction in binding affinity against WT” value with MBP:Ncd^CTm3A is around 10 fold.

B2: Ncd^CTm, soluble untagged prey (domain or fragment, Drosophila, UniProt P20480 333-700, looked up)
chain: T1 sequence (looked up)
Regarding B2, the binding result with MBP:Ncd^FL was “binds”.
